This assay has as its target botulinum toxoid A (UniProt P0DPI0). In words: Luminex AMP-capture assay with antibody tracers.

botulinum toxoid A, sequence (P0DPI0 2-1296): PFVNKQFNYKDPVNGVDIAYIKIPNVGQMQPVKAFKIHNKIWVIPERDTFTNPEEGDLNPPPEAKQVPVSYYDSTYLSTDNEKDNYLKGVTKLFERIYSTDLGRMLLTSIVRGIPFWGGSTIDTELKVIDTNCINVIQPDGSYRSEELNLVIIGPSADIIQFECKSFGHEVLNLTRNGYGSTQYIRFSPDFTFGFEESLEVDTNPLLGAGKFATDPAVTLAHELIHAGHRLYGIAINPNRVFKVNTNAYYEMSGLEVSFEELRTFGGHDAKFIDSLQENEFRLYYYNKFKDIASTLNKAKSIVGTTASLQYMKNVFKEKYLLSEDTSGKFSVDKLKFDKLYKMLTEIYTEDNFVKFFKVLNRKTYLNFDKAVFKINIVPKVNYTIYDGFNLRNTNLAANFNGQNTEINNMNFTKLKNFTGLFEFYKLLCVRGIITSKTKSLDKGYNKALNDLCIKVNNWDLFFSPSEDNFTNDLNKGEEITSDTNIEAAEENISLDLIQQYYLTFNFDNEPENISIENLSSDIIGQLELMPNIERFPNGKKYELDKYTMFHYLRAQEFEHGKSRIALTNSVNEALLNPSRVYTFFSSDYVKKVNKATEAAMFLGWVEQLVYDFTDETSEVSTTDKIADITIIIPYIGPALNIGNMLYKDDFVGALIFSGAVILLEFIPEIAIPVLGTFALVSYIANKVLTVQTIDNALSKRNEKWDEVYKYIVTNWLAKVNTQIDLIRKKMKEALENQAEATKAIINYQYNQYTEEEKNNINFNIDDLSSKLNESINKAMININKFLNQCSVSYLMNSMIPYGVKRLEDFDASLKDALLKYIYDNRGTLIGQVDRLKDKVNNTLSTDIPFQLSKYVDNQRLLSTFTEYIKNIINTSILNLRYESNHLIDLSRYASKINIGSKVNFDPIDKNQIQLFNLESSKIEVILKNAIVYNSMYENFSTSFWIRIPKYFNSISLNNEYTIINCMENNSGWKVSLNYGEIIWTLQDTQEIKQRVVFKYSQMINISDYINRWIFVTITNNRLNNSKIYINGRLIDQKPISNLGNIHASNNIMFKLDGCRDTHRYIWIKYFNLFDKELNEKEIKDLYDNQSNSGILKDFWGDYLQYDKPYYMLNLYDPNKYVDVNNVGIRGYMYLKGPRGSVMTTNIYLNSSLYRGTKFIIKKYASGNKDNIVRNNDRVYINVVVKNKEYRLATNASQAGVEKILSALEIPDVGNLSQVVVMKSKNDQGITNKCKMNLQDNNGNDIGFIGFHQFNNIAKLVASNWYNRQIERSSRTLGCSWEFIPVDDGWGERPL

Substance AMP-derivatized Luminex beads came in with a lowest detectable concentration of 1 µg/mL.

These data come from patent publication US8658372.
